Test results: the PETadex activity labels (doi:10.1101/2025.08.30.673199)
Residue numbers refer to the chain shown, from its start.

B1: unnamed (protein)
chain: MKAPLFKLAAFTLGVSLSSVALATNPGGGGAGSNPDTGTGFPGVSSFSADGSFATTSGSAGLSCTVFRPSTLGANGLKHPIIVWGNGTTASPSTYSGILEHWASHGFVVIAANTSNAGTGQDMLNCVDYLTTQNNRSTGTYANKLDLNRIGAAGHSQGGGGTIMAGQDYRIKVTAPFQPYTIGLGHNSSSQSNQNGPMFLMTGSADTIASPTLNALPVYNRANVPVFWGELSGASHFEPMGSAGDFRGPSTAWFRYHLMDDASAEDTFYGSNCDLCTDNDWDVRRKGIN
B2: unnamed (protein)
chain: B1 chain with Y180F, M240V
B3: unnamed (protein)
chain: B1 chain with M240V
B4: unnamed (protein)
chain: B1 chain with N187A, M240V
B5: unnamed (protein)
chain: B1 chain with T88Y, M240V
B6: unnamed (protein)
chain: B1 chain with D206A, M240V
B7: unnamed (protein)
chain: B1 chain with F237I
B8: unnamed (protein)
chain: B1 chain with S156A, M240V

What follows are proteins tested on PET (assay: Proxy for plastic degradation [Released monomer concentration (HPLC/LC-MS) (TPA+MHET+BHET)]). Details: pH 9.

Protein | Proxy for plastic degradation
B1 | 870 µM
B2 | 375 µM
B3 | 1020 µM
B4 | 920 µM
B5 | 345 µM
B6 | 10 µM
B7 | 600 µM
B8 | 10 µM
